Each block holds one binder with its values, some of them ahead of it.
Legend:
human IL22 = target: T1, human IL22 (Homo sapiens, UniProt Q9GZX6); experiment: SPR; Biacore T200; who was immobilised is not told for these mAbs (values of Table S3); conditions: both partners purified
T1 construct: interleukin-22, human; also called interleukin-22

human IL17F [1] = target: T2, human IL17F (Homo sapiens, UniProt Q96PD4); experiment: as above; conditions: both partners purified
T2 construct: interleukin-17F, human
T2 sequence (Q96PD4 31-163): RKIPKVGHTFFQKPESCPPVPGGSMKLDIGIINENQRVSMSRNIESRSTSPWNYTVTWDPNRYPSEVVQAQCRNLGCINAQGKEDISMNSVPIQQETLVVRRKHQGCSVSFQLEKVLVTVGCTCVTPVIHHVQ

recombinant human IFNα14 = target: T3, recombinant human IFNα14 (Homo sapiens, UniProt P01570); experiment: SPR; antibodies 19D11 and 26B9 immobilized on Biacore chips; different concentrations of recombinant human IFNs passed over; Biacore T200; conditions: both partners purified
T3 construct: interferon alpha-14, human; source: recombinant
T3 sequence (P01570 24-189): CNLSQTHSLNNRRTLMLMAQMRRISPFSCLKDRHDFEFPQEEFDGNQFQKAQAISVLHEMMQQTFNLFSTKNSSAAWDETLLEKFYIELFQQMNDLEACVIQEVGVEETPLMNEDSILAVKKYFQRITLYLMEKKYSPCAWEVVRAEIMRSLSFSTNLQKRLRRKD

recombinant human IFNα4 = target: T4, recombinant human IFNα4 (Homo sapiens, UniProt P05014); experiment: as above; conditions: both partners purified
T4 construct: interferon alpha-4, human; source: recombinant
T4 sequence (P05014 24-189): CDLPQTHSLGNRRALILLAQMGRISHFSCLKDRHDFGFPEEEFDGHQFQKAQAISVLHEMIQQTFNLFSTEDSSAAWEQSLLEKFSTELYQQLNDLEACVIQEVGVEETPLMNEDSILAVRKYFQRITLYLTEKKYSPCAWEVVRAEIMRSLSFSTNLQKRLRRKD

recombinant human IFNω = target: T5, recombinant human IFNω (Homo sapiens, UniProt P05000); experiment: as above; conditions: both partners purified
T5 construct: interferon omega-1, human; source: recombinant
T5 sequence (P05000 22-195): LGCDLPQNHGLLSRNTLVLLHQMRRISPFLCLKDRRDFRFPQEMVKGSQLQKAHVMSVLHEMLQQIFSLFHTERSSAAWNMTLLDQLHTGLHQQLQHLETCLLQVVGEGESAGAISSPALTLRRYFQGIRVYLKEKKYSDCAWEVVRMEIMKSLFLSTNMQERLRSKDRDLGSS

human IL17F [2] = target: T2, human IL17F; experiment: ELISA; IL17F immobilized; mAbs and germline counterparts added

T1 sequence (Q9GZX6 34-179): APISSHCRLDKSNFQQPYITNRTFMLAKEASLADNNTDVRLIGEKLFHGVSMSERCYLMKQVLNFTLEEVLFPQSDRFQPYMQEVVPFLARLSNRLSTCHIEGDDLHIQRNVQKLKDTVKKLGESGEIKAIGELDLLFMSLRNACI

Kd (human IL22): 37 pM
B1: 30G1, patient-derived IgGκ antibody specific for IL22 (antibody, V domains shown)
VH: EVQLLESGGGLVQPGGSLRLSCAASGFTFSTYAMSWVRQAPGKGLEWVSTITSSGGATYHADSVKGRLTISRDNSKNTLYLEMNSLRVEDTAVYYCAKDWGRTVYAVIKDLDIWGQGTLVTVSS
VL: EIVMTQSPAILSVSPGERATLSCRASQSVSNYLAWFQQKPGQAPRLLIYDTSKRATGTPARFSGSGSGTDFTLTISSLEPEDFAVYFCQQRSDWPQYTFGQGTKLEIK
notes: kappa light chain; IgG1 kappa by the cloning vectors; source: recombinant

Kd (human IL22): 54 pM
B2: fezakinumab, CHO cell-expressed form (in-house-expressed anti-IL22 mAb) (antibody, V domains shown)
VH: QVQLVQSGAEVKKPGASVKVSCKASGYTFTNYYMHWVRQAPGQGLEWVGWINPYTGSAFYAQKFRGRVTMTRDTSISTAYMELSRLRSDDTAVYYCAREPEKFDSDDSDVWGRGTLVTVSS
VL: QAVLTQPPSVSGAPGQRVTISCTGSSSNIGAGYGVHWYQQLPGTAPKLLIYGDSNRPSGVPDRFSGSKSGTSASLAITGLQAEDEADYYCQSYDNSLSGYVFGGGTQLTVL
notes: expressed as the patient mAbs (vectors providing IgG1 and light-chain constant regions); source: CHO cell-expressed; V regions ordered as CHO-codon-optimized synthetic constructs (GenScript)

Kd (human IL17F [1]): < 10 pM
B3: 17E3, patient-derived IgGκ mAb specific for IL17F (antibody, V domains shown)
VH: QVQLVQSGAEVAKPGASVRLSCKASGFSFIKYYMHWVRQAPGQGLEWMGVIEPTGGGTSSAQKFRDRVTLSRDTSTATVHLEVSRLTLEDTGIYFCVRDSIYCKHGTCHRTVIDAFDIWGQGTAVTVSS
VL: DIQMTQSPSSLSASVGDRVTITCRSSQDIKNDLAWYQQKPGKAPERLIYAASNLQSGVPSRFSGSGSGTEFSLTISGLQPEDFATYYCLQHNSYPLLTFGGGTKVEIK
notes: as for B1

Kd (recombinant human IFNα14): 0.0328 pM | binding result (recombinant human IFNα4): binds | binding result (recombinant human IFNω): binds
B4: 26B9, APS1/APECED patient-derived anti-IFN monoclonal antibody (antibody, V domains shown)
VH: QILLQESGPGLVKPTETLSLTCSVSGDSISDSSHYWAWIRQPPGKGPEWIGSVYFSSMTHYNPSLKSRVSISVDKPKNQFSLKVTSVTVADTATYYCARQALARVGAMNWFDPWGQGSLVTVSS
VL: DIIMTQSPDSLPVSLGEGVTINCKSSQSVFFTSSNKSCLAWYQQKPGKSPKLLIYWASTRQSGVPDRFRGSGSGTDFSLTITSLQAEDVAVYFCQQCQTSPPTFGGGTRLEIK
notes: V regions cloned into vectors providing IgG1 and Ig-kappa constant regions; source: recombinant, harvested from transfected CHO cells (SPR); recombinant antibodies were also produced in HEK293T cells

binding result (recombinant human IFNω): no binding
B5: 19D11, APS1/APECED patient-derived anti-IFN monoclonal antibody (antibody, V domains shown)
VH: QVQLVQSGAEVKRPGSSVRVSCRASGDTFSSYPISWVRQAPGQGLEWMGRILPALGVTNYAQNFRGRITITADKSPLTAYLELSSLRFEDTAVYYCASPSADIIPSILGTTLFAFWGQGSLVTVSS
VL: EIVLTQSPGTLSLSPGEGATLSCRASQNVSRHYLTWYQQKPGQSPRLLIYGGSSRATGVPDRFSGGGSGTDFTLTISRLEPEDFAVFYCQSYHSPPPVYTFGQGTKVEIK
notes: as for B4

binding result (human IL17F [2]): binds
B6: 9A2, patient-derived IL17F-reactive mAb (antibody, V domains shown)
VH: EVQLEESGGGLVQPGGSLRLSCAASGFPFSNYEMNWVRQAPGKGLEWISYISVSGGPAHYADSVKGRFTISRDDATKSLFLQMNRLRADDTAVYYCVRREYVTGRNYNYYPYMDVWGTGTTVTVSP
VL: DIQMTQSPSSLSASVGDRVTITCRASQTISDYLNWYQHKPGEAPKLLIYSASTLQRGVPSRFSGSGSGTDFVFTISSLQSDDFATYYCQQTSSTALTFGGGTKVEVK
notes: source: recombinant

Kd (human IL22): 39 pM
B7: 35G11, patient-derived IgGλ antibody specific for IL22 (antibody, V domains shown)
VH: QVQLVQSGSELRRPGASVNISCKASGYGFNTYAMNWVRQAPGQGPEWMGWINTDTGDPTYAQGFTGRFAFFLDTSASTAFLQITRLTGEDTAVYFCARTRNNWNGVYYHYSGLDVWGQGTTVTVSS
VL: QSVLTQPPSASGTPGQTVTISCSGSSPNLGDNYVYWYHQVPGTAPKLLIFRNTQRPSGVTDRFSGSKYGTSASLAISDLRSDDEGDFYCASWDDRLSRLVFGGGTKLTVL
notes: lambda light chain; IgG1 lambda by the cloning vectors; source: recombinant
